Experimental data as given in the DeepSol protein solubility set.

assay: soluble on expression in E. coli; label from the status in PepcDB or PDB records

| Sequence | soluble on expression in E. coli |
| --- | --- |
| MGSDKIHHHHHHMKTFHLTTQSRDEMVDITSQIETWIRETGVTNGVAIVSSLHTTAGITVNENADPDVKRDMIMRLDEVYPWHHENDRHMEGNTAAHLKTSTVGHAQTLIISEGRLVLGTWQGVYFCEFDGPRTNRKFVVKLLTD | soluble |
| MTLSGGTIDILKTRSLAKLQGSKEVMKQKLEIPIHGSVTDNIFSEVRDSFRRNFTEGWEKAGAAFCVIHKGKVIVDLWGGYADKECFKEWKEDTISTIFSCTKSVTAICFAILVDRGLLKYSDKVTKYWPEFGQNGKQDITIEMVLSHTAGLPYFPGVKFTEEDLTDNNKLSHMIENLKPVFAPGTRTAYHALTFGWLTDQIFRRVDSQKRTVGQFFKDEIATKHYIDIHIGECSNEENRLARLFKCPATLVSREIAYDRSILKLARYYYNPRGLFAAARRNLSLHGSDFTMFNNSDLRVVGQPAVNGIGSARAMAQLHQLVLDGTLLSKETFDIIKHPRKMTSFDYLIGEPQNKEHGFTYFKSPLNTWQFGHPGVGGQMVRVDVENDLIVAYLTNGMKTAGCEDHVFTFNRLQRKVYECLKRIPKFELPPPEDIVENE | not soluble |
| GSHMIEPNVISVRLFKRKVGGLGFLVKERVSKPPVIISDLIRGGAAEQSGLIQAGDIILAVNDRPLVDLSYDSALEVLRGIASETHVVLILRGPEGFTTHLETTFTGDGTPKTIRVTQPLGPPTKAV | soluble |
| MDREHLIKLACARNPDLEMCEQLKARNVRDSNSGKLEMIEPPPLPPSMKAAKRRDIHAAHDENSEQKPVRYRALSAEEVRILQTKCARVGPLVQKHCQPKKTSARNAGRCAAYFRDCAQFIEKGDPLGAIANSFDSGVNINLANVDVKGIPYYPLNEEGAVGVGVGLGIPFGAWGGGASTSVGVRDYFHGDQEVGANWYDGKYGYKNHWNIPLVQSLGVEGGQHNTVSFPLHGKDAGNLKVDNGYGVGGYYQQNDHVGVNYKEGDVRHTFGVSSPFVGAGFQTGQAVAFPGLDVWERALG | not soluble |
| TRTEISPGKAPFTIEHNQTVVTIGSCFSDMIGEKLQYYKFDVLANPFGTTFNPISIFQLLTIAIEKKFNPFPASLGEIWYDHQFHSEVSALSAEALHELTNERIAAATKSLARASCLVITLGSAWVYRHVETNTIVNNCHKQSGRYFKKELLSVKHILEDFETVYAKLKELNPSIKIIFTVSPVRHIKDTLQLNSVSKAILLSSVHYMCEQHTDCHYFPSYEIQMDDLRDYRYYAEDLIHPSKQAEKYIWKKLSNWVFSSDLLAALEEWDQLQKLLHHKAF | not soluble |
| MAHHHHHHMESPQVAELNEDIVELNKLLAQAVRENVKEKIKKCIENTTVEIAKLKLEESQTPNKITEKNTPLNDSNISYNSVQSFAWNQEGNKVTVFLTVKDIHTIDKEKISAEFNERNFEVKMHQVNKKNYRFCVKKLHEKIVPGKCSFKVKKDALHVYLIKQDQKYWDNLHFKESPMSKIRAPKMDEQAEPSTMLMNMMKQLYQEGDSDMKRTIAKAWCEANEKKSDFSVPNF | soluble |
| MGSDKIHHHHHHMEDIIVVENLVKKFGDFEAVKGVSFSVKKGEIFAFLGPNGAGKTTTIHMLTTLLKPTSGKAWVAGHDVLKEPREVRRKIGIVFQDQSLDRELTAYENMYIHGKIYGYGGEKLKKRILELLEFVELLEFKDKPVKTFSGGMARRLEIARSLIHEPEVLFLDEPTIGLDPHTRAHMWEYISKMKKEHNMTIFLTTHYMDEAEQLADRVAIIDHGKIIALGTPTELKRMVGKEIIYVRFSEAVECLEGDFIESCRKLPDGRLELNVEDSGRAIPKIFELAQQKGLKIEEITYHKPTLNDVFLHLTGRELREEGPENSFKTMARMRMRMRR | not soluble |
| MKIAGIDEAGRGPVIGPMVIAAVVVDENSLPKLEELKVRDSKKLTPKRREKLFNEILGVLDDYVILELPPDVIGSREGTLNEFEVENFAKALNSLKVKPDVIYADAADVDEERFARELGERLNFEAEVVAKHKADDIFPVVSAASILAKVTRDRAVEKLKEEYGEIGSGYPSDPRTRAFLENYYREHGEFPPIVRKGWKTLKKIAEKVESEKTQDMINKST | soluble |
| KRFEFVGWGSRQLIEFLHSLGKDTSEMISRYDVSDTIAKYISKEGLLDPSNKKKVVCDKRLVLLFGTRTIFRMKVYDLLEKHYKENQD | soluble |
| MAPIRRSSRLAERYDAIESKKRSLKRLEEQIKAEEEQFSDKMKQLEDEIKIKEQVITMFKRKTVRREWMRNSRQATTNINIAQIESLKLQLEEGEKDIAEAEKQAEPTTPQQEAELSETFKQMVRDRMKVKDVDEKLLQQYMKKENVEFEWRSCFICTMEYSRTDKNLHPIILNCGHNLCRSCINKLTGNGIVKCPFDRLDTRVRVTGLPRNLALINL | not soluble |
| MKILNRLATDVGLMLRRPPRQQYAALCYRLSKSNPEPEVLLLTSRDTGRWVIPKGWPMANKKAHAVAEQEAYEEAGVKGTVEKAPFGYYEYEKKLNSGINVPCKVQVHLLEVSEMRDSFPEKDARRLEWVSPREAGKRVNEPELKALMLAFDKRMAHSQ | not soluble |
| EPEGKPRAWVLDFKGSMDAHEVNSLREEITAVLAAAKARDQVVIRLESPGGVVHGYGLAASQLQRLRDKQIPLTVSVDKVAASGGYMMACVANKIVSAPFAILGSIGVVAQIPNLHRFLKNKDIDIELHTAGQYKRTLTMLGENTEEGRRKFREDLNETHHLFKDFVHRMRPGLDIEQVATGEHWYGVQALEKGLVD | not soluble |
| MAQGTVEARHGALDEAALGIGRWRWDLRSQELVWSEEERAIFGLAPGAPVPGFAAFSAMIHPDDRARVVAAVSETLAQRRLRHSIGFRILRPDGTMRQILSHGRLVMGLDGKPISLEGVDLDLT | not soluble |
| MSLKPSLDELESLLIARHTPNIHNKLKKGKVAILGLGGLGSNIAISLARIGVGELLLIDYDVVEPSNLNRQQYFIDDIGKLKTDAMIENIKKINPFIKLNKRDIFLNKNNMDTIKDSDLIIEAFDDASCKAQVCNYVLINLKDKYLIASSGMAGYYDSNIITTKKIKDRFYICGDFVNEAKFGEEGHHHHHH | not soluble |
| MEKAIHNLGKDARLHIIHILLQNRSKKELADELGITPAAITKYLKGITHPSDEIIEKCIEIASEDEEYHEIIKVIVSDITEALMELLREIGIEKMIDNEDIQKLKKLLDKAFDKMLSTSPSFV | not soluble |
| MRRIITMTVNNRPGVLNRITGLFTKRHYNIESITVGHTEIEGISRMTFVVNVDDERTAEQIIKQLNKQIDVLKVNDITDQAIVARELALIKVAAPPAVRQEIYTLIEPFRASIVDVSKDSLVIQVTGEPEKVEALIELLRPYGIKEVARTGTTAFTRGAQKATTNQKTAFII | not soluble |
| MGSDKIHHHHHHMDTLQKTIHNSEYPVVCRSCEARHGGLCSTLTPQQLCDLNRHSSRKKLEAGNELLGQGELVTSYGNILNGVVKLSKMMSDGRQQIVGLQFAPDFLGRPFMAESKMTAEAATDVEICLFPRRIVDRMVTEVPDMERKLHSQSLKELDEARDWMLTLGRKSAQEKVASFLYMIATHIDPENDDKSCFDLPLSRADIADFLGLTIETVSRQMTKLRKEGTIRIENNRHITVPDLDVLSEAAGND | not soluble |
| MGSDKIHHHHHHAGCAMIPPEPVVTGPLTAPPPPPPQPSARPNGSIYQPSAYGNYPLFEDRRPRNVGDIVTIVLEEKTNAAKGVATNTSRDGSATLGVAAAPRFMDGIINDKLDTDISGGNTANGTGKSSANNTFTGTITTTVIGVLPNGNLQIAGEKQIAINRGSEYVRFSGVVDPRSITGSNTVSSTRVADARIEYRSKGVMDEVQTMGWLQRFFLIASPF | not soluble |
| MGSDKIHHHHHHMKSIKAADLHAAVRDMIMDANRVLGKDVYNAFQTCMQQETTDSGKEVLRQLLENADLAAQSGLALCQDTGVAVFFVEMGEEVRMEGGGLKETLNAAMVEAYNKAFLRKSMCHPLTRKNTGDNTPAVIHVELVPGDTLKVRYMAKGGGSENMSRCTMLTPAQGWQGIKDFVVRRMAEAGPNPCPPTIVGVGIGGTFDLAPSLAKGALFRRVDDVHPDPEIAAMEKELLDEINALGIGPMGLGGKTTCLAVKIAMHPCHIASLPLAVNVQCHSSRHKEVVF | not soluble |
| MSLASFPHRNLTWNDINFVHTTDTHGWYSGHINQPLYHANWGDFISFTTHMRRIAHSRNQDLLLIDSGDRHDGNGLSDITSPNGLKSTPIFIKQDYDLLTIGNHELYLWENSKQEYETVVNHFQDKYVCSNVDIRLDNGLFVPLGLKYKYFTTPIRGIRVMAFGFLFDFKRFNSGTRVTPMAETIHEPWFQEALKHEVDLIIIVGHTPISHNWGEFYQVHQYLRQFFPDTIIQYFGGHSHIRDFTVFDSLSTGLQSGRYCETVGWTSVNLDKADLNLPVRQRFSRSYIDFNTDSFKYHTNLDKEFDTAKGKLVSKLIRETRKELKLDTLIGYVKTNYYVDYVPIDHPKSIFNLLALKILKTLPKSKHEERITIINTGSIRYDLYKGPYTIDSKFIVSPFENIWVNITVPKSVATKVAAKLNDADYISASRLKPPHQYDLQVQDLSTSPHQAHFEMQEKLPKGYVTHDDFGADGDDTLHRAVVNFPVPNVIQSVEINDEVDSPVNLVFYSFITPNIIWALKELNFSTEQVPTPYSDIYLGTLLNEFVANNEGHHHHHH | soluble |
| MAKNTSSNAFRKIDVDQYNEDNFREDDGVESAAAGPDESEITTLLTQGKSVEALLSALQNAPLRCKNQNVKDHALNITLRVLLSIKSTQMDQAIDTLDQNDLIDVLMKYIYRGFEIPSEGSSGHLLQWHEKAFAKGGVGCIVRVLSDTNRALEHHHHHH | soluble |
| MSSIRYRRPPIIERRYERTPSYSTIPRDIHVSFYHNNYHRSKILYLNKFNAMEKLIEAAHELYPSNGVYRLFSDSTIGAQNELNDSVQVMECVQNPDHILPHLHIRLEDYRPRSISRNYHEVNVPIIRTPSQHSIHQSVRFNDNKRHHHHHHHDSIRNFVHHDTPCRNCFRIIVGSRYHCLQCPDYDICGDCEKDLVHYEHALLRIVTPRVTSIPDYVTVNAPSYIFPEHRYDIKREHYHWF | not soluble |
| TPLSRSERIELQSLLSARQYDAGAPDGIIGANTRKAIRSAQQSFGWPADGYPTHELLEALRKPVGQ | not soluble |
| MGSDKIHHHHHHMDGRGLKAYATPIRKFWVVLLQQRRMAMAENEKYLDWAREVLHTEAEGLREIAAELDENFVLAADALLHCKGRVVITGMGKSGHIGRKMAATMASTGTPAFFVHPAEAAHGDLGMIVDNDVVAAISNSGESDEITAIIPALKRKDITLVCITARPDSTMARHADIHITASVSQEACPLGLAPTTSTTAVMALGDALAVVLLRARAFTPDDFALIHPAGSLGKRLLLRVADIMHKGGGLPAVRLGTPLKGAIVSMSEKGLGMLAVTDGQGCLKGVFTDGDLRRLFQECDNFTGLSIDEVMHTHPKTISAERLATEALKVMQANHVNGLLVTDADGVLTGALNMHDLLAARIV | not soluble |
| KTIYLQSPYFIPDASLLEAIKIAALSGVDVRVMIPNKPDHAFVYRATTNYAGELMETGAKIFIYDNGFIHAKTLVVDGEIASVGTANMDFRSFRLNFEVNAFIYEKKMVQKLEDAFLEDILKSYQLTPELYAKR | not soluble |
| MDTKHPPDPSGPSDPNINLGEFEDPVDGYADDDLLTPDDLSVSVTGMTPSRSFLETEEFETELGGVEPFEDLFNDISAHEIIQVIADGDRVGRPIVVVYAYRLPSSKEIDHARLLQYLVQIIDKIVDQDYTIVYFHYGLRSHNKPPVRWLFQAYKQLDRRFKKNLKALYVVHPTRFIRIIFSLFKGFISSKFENKFHYVMCIDELENALSVARLNLPSPIRDHDKSFSTQSNRPETPPAQPLPTQQFGVPLEFILSHCGGNIPPIVDQLIEYLEAHALTMEGVFRKSANIGSIKRLQDRINKGEKIDFENDPEYKDNEYVASLHASVLLKTFFRSLGEPLTTNRLYPKLAALSEVSKTEKSAAVKEFVKLLPRENYILLKTVIKFLTRVAENSKVNLMTANNLSVVFGPNLTWPTDQEVPISQLNNLNNFCYKLIVDYDSVFDH | not soluble |
